Assay [1] has as its target T1, CD133 (human, UniProt O43490 20-865).
T1 construct: whole, on cells; also called CD133 molecule
T1 sequence (looked up): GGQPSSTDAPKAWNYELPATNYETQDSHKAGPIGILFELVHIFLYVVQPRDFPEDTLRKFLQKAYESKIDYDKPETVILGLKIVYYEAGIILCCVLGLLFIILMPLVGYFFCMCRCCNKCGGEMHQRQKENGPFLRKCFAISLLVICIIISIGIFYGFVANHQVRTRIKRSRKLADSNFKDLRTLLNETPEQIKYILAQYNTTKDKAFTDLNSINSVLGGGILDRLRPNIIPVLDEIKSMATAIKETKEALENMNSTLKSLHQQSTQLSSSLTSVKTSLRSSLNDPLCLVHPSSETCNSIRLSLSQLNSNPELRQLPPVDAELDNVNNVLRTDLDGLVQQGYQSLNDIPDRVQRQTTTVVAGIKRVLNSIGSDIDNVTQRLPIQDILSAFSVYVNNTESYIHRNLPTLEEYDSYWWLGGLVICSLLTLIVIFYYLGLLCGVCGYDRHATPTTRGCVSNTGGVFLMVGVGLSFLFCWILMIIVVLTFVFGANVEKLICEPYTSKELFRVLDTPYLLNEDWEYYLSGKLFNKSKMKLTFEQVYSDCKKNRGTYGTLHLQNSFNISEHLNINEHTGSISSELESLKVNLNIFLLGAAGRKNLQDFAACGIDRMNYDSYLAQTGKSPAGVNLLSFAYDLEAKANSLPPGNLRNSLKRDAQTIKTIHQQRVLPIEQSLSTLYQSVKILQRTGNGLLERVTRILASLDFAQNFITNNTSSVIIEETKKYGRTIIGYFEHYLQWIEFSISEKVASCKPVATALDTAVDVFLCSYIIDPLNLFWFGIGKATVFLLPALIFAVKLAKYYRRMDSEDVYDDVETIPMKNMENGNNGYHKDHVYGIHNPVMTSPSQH
The assay can be described thus: FACS, phage on Caco-2 cells. The protocol: FIG. 3 depicts the results of co-expression of the CD133 epitope and phage-bound antigens. FIG. 3A depicts FITC-labeled phage antibodies and biotin-labeled anti-CD133 mAb were studied on GBM sphere cells. A typical result from studies on GBMx-1 sphere cells is shown. Percentage of total cells is indicated for each quadrant. […] PE-conjugated control mouse IgG and anti-CD133 mAb were incubated with Caoa-2 cells and binding detected by FACS. […] Four tumor sphere cell-targeting phage (GB1, GB8, GH9 and GC4) were tested. Negative control: a non-binding phage. Positive control: a Caco-2 binding phage preparation. FIG. 3D depicts the results of antibody immunoprecipitation of Caco-2 lysates. Lane 1: immunoprecipitation with anti-CD133 mAb. Lane 2: immunoprecipitation with the GC4 antibody. All immunoprecipitation products were analyzed on a SDS-PAGE gel followed by Western blot with anti-CD133 antibody and horseradish peroxidase-conjugated anti-mouse secondary antibody. Arrow indicates CD133. Molecular weights (kd) are indicated.
Phage antibody binding to antigens other than CD133: Caco-2 cells that express high levels of CD133 were incubated with phage antibodies along with the positive control PE-conjugated anti-CD133 antibody at 4° C. for 1 h, washed twice with PBS, and bound phage detected by biotin-labeled anti-fd antibody followed by streptavidin-R-PE, and analyzed by FACS. For immunoprecipitation studies, 10⁵ Caco-2 cells were lysed in 1% NP40, 0.15 M NaCl, and 0.01 M sodium phosphate, pH 7.2, on ice for 2 h. Lysates were precleared and incubated with 50 μg/ml scFvs bearing a hexahistidine tag at 4° C. for 1 h, and captured onto Ni-NTA+ beads (Qiagen). […] All immunoprecipitation products were analyzed by 4-20% gradient SDS-PAGE, followed by Western blot with mouse anti-CD133 followed by horseradish peroxidase-conjugated goat anti-mouse antibody (Jackson ImmunoResearch) using ECL Plus™ (GE Healthcare).
In general terms: A flow cytometer gives signals particle by particle.

Assay [2] addresses T2, antigen bound by the GC4 antibody on GBM tumor sphere cells (target antigen not determined).
T2 construct: also called GBM tumor spheres; GBM sphere cells
The assay can be described thus: FACS on GBM tumor sphere cells at RT, MFI fitted (apparent dissociation constant). The method, then:
FIG. 7A depicts the production of recombinant GC4 IgG. H: heavy chain. L: light chain. MW: molecular weight. […] Ctr: a non-binding human IgG1. […] FACS analysis was performed to determine binding of GC4 IgG1 (1 μg/ml) in the presence of the parental GC4 or four other scFvs (50 μg/ml each). Binding was detected by fluorescently labeled anti-human IgG antibody. Normalized mean fluorescence intensities were used to compare binding results. Error bars indicate standard deviations of duplicated experiments. *, P<0.05. […] MFI values were fitted using GraphPad. FIG. 7E depicts the binding constant of GC4 scFv to GBM tumor spheres. […] MFI values were fitted using GraphPad.
Affinity measurement: Varying concentrations of GC4 IgG1s were incubated with 10⁵ GBM cells at RT for 1 h in PBS containing 0.25% BSA. Bound IgG1s were detected by PE-conjugated goat anti-human antibody (Jackson ImmunoResearch) following incubation at RT for 30 min. Apparent dissociation constant was determined by FACS with mean fluorescence intensity (MFI) data fitted using GraphPad Prism (GraphPad Software). The apparent dissociation constant of GC4 scFv was measured similarly except that bound scFvs were detected by mouse anti-hexahistidine antibody (AbD Serotec/MorphoSys) followed by PE-conjugated goat anti-mouse antibody (Jackson ImmunoResearch).

The target of assay [3] is T1, CD133. The assay can be described thus: FACS, biotin-labelled GC4 scFv on Caco2 cells (CD133-high by paragraph 182); '-' means lack of significant binding. The protocol: For Table 1-6, biotin-labeled GC4 scFvs were tested for binding to a panel of human cell lines (all were tumor lines, except for BPH-1) by FACS. “+” indicates binding and “-” indicated lack of significant binding. Du-145 cells were derived from brain metastasis of prostate tumor.

B1: GB8 scFv (scFv)
scFv: QVQLVESGGGLVQPGGSLRLSCAASGFTFSNYALTWVRQAPGKGLEWVSAISGSGGSTYYADSVKGRFTISRDTSKNTLYLQMNSLRAEDTAVYYCARGGYSYGPPFDYWGQGTLVTVSSGGGGSGGGGSGGGGSSELTQDPAVSVALGQTVRITCQGDSLRSYYASWYQQKPGQAPVLVIYGKNKRPSGIPDRFSGSSSGNTASLTITGAQAVDEADYHCNSRDSSGNHVVFGGGTKLTV
notes: His-tagged soluble scFv in the immunoprecipitation; also called GB8 phage antibody; not shown: lette
As to B1, the binding result with CD133 [1] was “no binding”.

B2: GB1 scFv (scFv)
scFv: QVQLVQSGGGLVKPGGSLRLSCAASGFTFSNAWMNWVRQAPGKGLEWVGRIKSKTDGGTTDYAAPVNGRFTISRDDSKNTLYLQMNSLKTEDTAVYSCTTENWGSVNWGQGTLVTVSSGGGGSGGGGSGGGGSNFMLTQPPSVSVAPGKTASLTCGYNIGTKSVHWYQQKPGQAPVVVVHDDSDRPSGIPERFSGSNSGTTATLTISRVEAGDEADYYCQAWDSISEEVVFGGGTKLTV
notes: On fd phage in the Caco-2 FACS; His-tagged soluble scFv in the immunoprecipitation; also called GB1 phage antibody; not shown: lette
Take B2: the binding result with CD133 [1] is “no binding”.

B3: GC4 scFv (scFv)
scFv: QVQLVESGGGLVQPGGSLRLSCAASGFTFGTYDMSWVRQAPGKGLEWVSGISGSGGSTYYADSVKGRFTISRDNSKNTVYLQMNSLRVEDTAVYYCARGGWYSDNWGQGTLVTVSSGGGGSGGGGSGGGGSSELTQDPAVSVALGQTVRITCQGGSLRSYYASWYQQKPGQAPLLVIYGENNRPSGIPDRFSGSSSGNTASLTITGAQAEDEADYYCHSRDSSGNHVVFGGGTKLTV
notes: Human scFv from a naive fd phage library; also called GC4 phage antibody; parental GC4 scFv; not shown: lette
Turning to B3, in assay [2], the Kd worked out at 222 nM. For the same molecule, the binding result with CD133 [3] was “no binding”.

B4: GH9 scFv (scFv)
scFv: QVQLQESGGGLVKPGGSLRLSCAASGFTFSSYSMNWVRQAPGQGLEWVSSISSRNSDIYYADSVRGRFTISRDNAKNSLYLQMNSLRAEDTAVYYCARDSSGYSSSPSDYWGQGTLVTVSSGGGGSGGGGSGGGGSNFMLTQPPSVSVAPGKTASLTCGGYNIGTKSVHWYQQKPGQAPVVVVHDDSDRPSGIPERFSGSNSGTTATLTISRVEAGDEADYYCQAWDSISEEVVFGGGTKLTV
notes: On fd phage in FACS; His-tagged soluble scFv in the immunoprecipitation; also called GH9 phage antibody; not shown: lette
Consider B4, for which the binding result with CD133 [1] is “no binding”.

The record behind these values is patent publication US20120039915A1 (University of California, published 2012).
